In publication PMC11127010 (Proceedings of the National Academy of Sciences of the …, 2024):

B1: hSTIM1-WT EF-SAM domain (aa58 to 201) (domain or fragment)
chain: SEDEKLSFEAVRNIHKLMDDDANGDVDVEESDEFLREDLNYHDPTVKHSTFHGEDKLISVEDLWKAWKSSEVYNWTVDEVVQWLITYVELPQYEETFRKLQLSGHAMPRLAVTNTTMTGTVLKMTDRSHRQKLQLKALDTVLFG
B2: hSTIM1 EF-SAM domain (aa58 to 201) α9-mutant (V178A-L179A) (domain or fragment)
chain: SEDEKLSFEAVRNIHKLMDDDANGDVDVEESDEFLREDLNYHDPTVKHSTFHGEDKLISVEDLWKAWKSSEVYNWTVDEVVQWLITYVELPQYEETFRKLQLSGHAMPRLAVTNTTMTGTAAKMTDRSHRQKLQLKALDTVLFG

Target: the molecule itself
Assay: SEC-MALS

Protein | stoichiometry N
B1 | ≥ 2
B2 | ≥ 2
